In test [1] the test system is humanized Pear1 mice. The test can be described thus: Peritoneal adhesion model, BhatiaDS score. Type of test: in vivo. Also on record: key to BhatiaDS score: grade 0: no adhesion; grade I: adhesive area of the area treated in the caecums of vermiform/total area of the treated area<50%, easy for blunt separation; grade II: above-mentioned area ratio≥50%, easy for blunt dissection; Grade III: Regardless of the size of the adhesive area, as long as the adhesion is difficult to separate, blunt separation can still be performed, but the intestinal wall is obviously damaged after separation; Grade IV: Regardless of the size of the adhesive area, as long as the adhesion is firm and can no longer be bluntly separated, required sharp separation. The source says:
The model was made in humanized mice within 3 cm from the caecums of vermiform in peritoneal cavity, following the methods in the literature (Zhiliang Zhang, et al., Characteristics of genesis and development of peritoneal adhesion by different causes: experiment with rats, Chinese Journal of Medicine, 2005). The mice were divided into 3 groups. groups, with 20 mice in each group: A, control group with normal saline; B, prophylactic intraperitoneal injection of anti-human Pear1 monoclonal antibody (including LF2 or hLF105 antibody) 0.5 mg/kg, once a week; C, prophylactic intraperitoneal injection of anti-human Pear1 monoclonal antibody 1 mg/kg, once a week. After the mice were euthanized at 2 time points of 2 weeks and 4 weeks, an inverted “U”-shaped incision was selected to enter the abdomen, avoiding the original surgical incision. […] And the degree of adhesion in the peritoneal adhesion model was evaluated. […]
According to the scoring standard of BhatiaDS, grade 0: no adhesion; grade I: adhesive area of the area treated in the caecums of vermiform/total area of the treated area<50%, easy for blunt separation; grade II: above-mentioned area ratio≥50%, easy for blunt dissection; Grade III: Regardless of the size of the adhesive area, as long as the adhesion is difficult to separate, blunt separation can still be performed, but the intestinal wall is obviously damaged after separation; Grade IV: Regardless of the size of the adhesive area, as long as the adhesion is firm and can no longer be bluntly separated, required sharp separation. Each mouse was scored by 3 people respectively, and the average value was taken as the score of adhesion in this sample.

Test [2] deals with subcutaneous mucosal fibroblasts. The test can be described thus: TGFβ activated mucosal fibroblasts treated with antibody: hydroxyproline in supernatant and QPCR of Col7a1, ACTA2. Type of test: cell-based, humanized Pear1 mice. The settings on record: 1 μg/mL antibody, 10 ng/mL TGFβ, 48 hours; versus control group. How it is done: After the treatment of starvation in cultured mucosal or subcutaneous derived fibroblasts for 12 hours, 1 μg/mL anti-human Pear1 monoclonal antibody (including LF2 antibody or hLF105 antibody) was added separately to treat the cells. After 30 minutes, 10 ng/mL TGFβ was added to treat the cells for 48 hours, then the cell supernatant was collected. The content of hydroxyproline was detected using the hydroxyproline detection kit of Nanjing Jiancheng Biology Co., Ltd. according to the instructions.
Mucosal fibroblasts in Method 5 were collected. Total mRNA was extracted by Trizol method (Invitrogen, Carlsbad, CA) according to standard protocols. Complementary DNA was synthesized using reverse transcriptase (Takara). ABI7000 Real-time PCR instrument (Life Technologies) was used to detect gene expression and the PCR primer sequences are shown in Table 5. The 18sRNA gene was used as an internal reference.
To further investigate the role of targeting Pear1 in inhibiting mucosal fibroblast activation, subcutaneous mucosal fibroblasts were isolated from humanized Pear1 mice and cultured in vitro. TGFβ activated fibroblasts were treated with anti-human Pear1 monoclonal antibodies (including LF2 or hLF105) for 48 hours, and the supernatants were collected to detect the content of hydroxyproline. The cells were collected for QPCR to detect the expression levels of extracellular matrix proteins such as collagen 7a1 (Col 7a1) and smooth muscle actin a2 (ACTA2) to characterize fibroblast activation and collagen synthesis.

Test [3] relates to humanized Pear1 mice. As to the kind of experiment: Subcutaneous mucosal adhesion model, HE and Masson staining at wounded site. Format: in vivo. The settings on record: 5 micrograms at the wounded site every 7 days; 14th day; versus control group. The source says: Mice were anesthetized by intraperitoneal injection of pentobarbital sodium. The hair is depilated and sterilized, and the skin is excised. A thin layer of bonding agent was applied to one side of the silicone plate to fix the wound concentrically with a clamping board. Each clamping board was sutured at regular intervals with eight stitches to secure it to the intact tissue around the wound, preventing contraction of the wound edges. Sterile dressings were cut into circular shapes and attached to the silicone board for protecting the wound, preventing the animals from scratching or chewing. The anti-human Pear1 monoclonal antibody was […].
Mice were anesthetized using isoflurane, maintaining a flow of 2% isoflurane. The sterile dressings on the silicone board were peeled off (or not peeled off). Pictures were taken at the wounded sites next to the fixed position and scale bar. If necessary, sterile dressings can be reapplied. Image J was used to process the photos. The wounded area can be calculated according to the circled area by the scale.
[…] were fixed in 4% paraformaldehyde for 48 hours, after paraffin embedding, a semi-automatic rotary slicing machine (Leica; rm2235 and cm1950) was used for slicing, dewaxing is carried out at room temperature, gradient ethanol is used for rehydration, HE and Masson staining were then performed.
Subsequently, in order to detect the role of targeting Pear1 in inhibiting adhesion formation in vivo, the inventors constructed an adhesion model in humanized Pear1 mice, and at the same time instilled anti-human Pear1 monoclonal antibodies (including LF2 or hLF105) each at a dose of 5 micrograms at the wounded site, with once administration every 7 days. On the 14th day, the subcutaneous mucosal tissue at the wounded site was removed, stained with HE and Masson, and photographed under a microscope. The thickness of the subcutaneous mucosa and skin and the area of collagen were counted by Image J software for indicating the formation of adhesions.

For test [4], the system named is humanized Pear1 mice. As to the kind of experiment: Peritoneal adhesion model, determination of hydroxyproline in tissues. Format: in vivo. The settings on record: versus control group. From the text:
(§1) The model was made in humanized mice within 3 cm from the caecums of vermiform in peritoneal cavity, following the methods in the literature (Zhiliang Zhang, et al., Characteristics of genesis and development of peritoneal adhesion by different causes: experiment with rats, Chinese Journal of Medicine, 2005). The mice were divided into 3 groups. groups, with 20 mice in each group: A, control group with normal saline; B, prophylactic intraperitoneal injection of anti-human Pear1 monoclonal antibody (including LF2 or hLF105 antibody) 0.5 mg/kg, once a week; C, prophylactic intraperitoneal injection of anti-human Pear1 monoclonal antibody 1 mg/kg, once a week. After the mice were euthanized at 2 time points of 2 weeks and 4 weeks, an inverted “U”-shaped incision was selected to enter the abdomen, avoiding the original surgical incision. […] And the degree of adhesion in the peritoneal adhesion model was evaluated.
(§2) For fibroblast-specific Pear1 knockout mice, a peritoneal adhesion model was used to form a sham operation on the mice. The model preparation and animal grouping were as described above.
The formation of tissue adhesion depends on the synthesis of collagen and hydroxyproline is the precursor of collagen synthesis. […]

The subject of test [5] is humanized Pear1 mice. As to the kind of experiment: Peritoneal adhesion model, indicators related to adhesion (immunohistochemistry or RT-PCR). Type of test: in vivo. The conditions noted are these: versus control group.
From the text: as §1, §2
Immunohistochemistry or RT-PCR was used to measure some indicators related to adhesion formation to reflect the severity of adhesion, such as: fibrinogen (FIB), α-smooth actin (α-SMA), MMPs/TIMPs, transforming growth factor (TGF-β1), vascular endothelial growth factor (VEGF).

Setting [6] is: 0.5 mg/kg intraperitoneal once a week, 2 weeks (n = 8).
The mark [7] stands for this setting: 0.5 mg/kg intraperitoneal once a week, 4 weeks (n = 8).
[8] abbreviates: 1.0 mg/kg intraperitoneal once a week, 2 weeks (n = 8).
Where [9] appears, read: 1.0 mg/kg intraperitoneal once a week, 4 weeks (n = 8).

Where a chain is given by its changes, count along the chain named. Names may count otherwise.

B1: hLF-N55Q: humanized anti-human Pear1 antibody; VH SEQ ID NO: 13, VL SEQ ID NO: 22 (antibody, V domains shown)
VH: QVQLVQSGAEVKKPGASVKVSCKASGYTFTGYPMNWVRQAPGKRLEWMGVINPYQGGTSYNQKFKGRATLTVDTSASTAYMELSSLRSEDTAVYYCARGGVRPFAYWGQGTLVTVSS
VL: DIQMTQSPSSLSASVGDRVTITCKASEDIYNRLAWYQQKPGKAPKLLISGATSLETGVPSRFSGSGSGNDFTLTISSLQPEDFATYYCQQYWSTPTFGQGTKLEIK
For the molecule B1, the BhatiaDS score entry in test [1] (setting [6]) is “II (grade II: above-mentioned area ratio≥50%, easy for blunt dissection)”; in test [1] (setting [7]) it was “I (grade I: adhesive area of the area treated in the caecums of vermiform/total area of the treated area<50%, easy for blunt separation)”; in test [1] (setting [8]), “III”; in test [1] (setting [9]) it was “I (grade I: adhesive area of the area treated in the caecums of vermiform/total area of the treated area<50%, easy for blunt separation)”.

B2: hLF107: humanized anti-human Pear1 antibody; VH SEQ ID NO: 8, VL SEQ ID NO: 24 (antibody, V domains shown)
VH: B1 VH with Q55N
VL: B1 VL with F71Y
With B2, the BhatiaDS score entry is given as “II (grade II: above-mentioned area ratio≥50%, easy for blunt dissection)” in test [1] (setting [6]); “I (grade I: adhesive area of the area treated in the caecums of vermiform/total area of the treated area<50%, easy for blunt separation)” in test [1] (setting [7]); “IV” in test [1] (setting [8]); “II (grade II: above-mentioned area ratio≥50%, easy for blunt dissection)” in test [1] (setting [9]).

B3: hLF110: humanized anti-human Pear1 antibody; VH SEQ ID NO: 9, VL SEQ ID NO: 23 (antibody, V domains shown)
VH: B1 VH with K43Q, R44N, Q55N, A68V, T74K
VL: B1 VL with K42N
Take B3: the BhatiaDS score result in test [1] (setting [6]) was “I (grade I: adhesive area of the area treated in the caecums of vermiform/total area of the treated area<50%, easy for blunt separation)”; in test [1] (setting [7]), 0; in test [1] (setting [8]), “III”; in test [1] (setting [9]) it was “I (grade I: adhesive area of the area treated in the caecums of vermiform/total area of the treated area<50%, easy for blunt separation)”.

B4: LF2: anti-human Pear1 monoclonal antibody; VH SEQ ID NO: 1, VL SEQ ID NO: 16 (antibody, V domains shown)
VH: EVQLQQSGPELVKPGASMKISCKASGYSFTGYPMNWVRQSHVKNLEWIGVINPYNGGTSYNQKFKGKATLTVDKSSSTAYIELLSLTSDDSAVYYCARGGVRPFAYWGQGTLVTVSA
VL: DIQMTQTSSSFSVSLGDRVTITCKASEDIYNRLAWYQQKPGNAPRLLISGATSLETGVPSRFSGSGSGNDYTLSITSLQTEDVATYYCQQYWSTPTFGAGTKLELQ
Take B4: in test [2], the “ability to synthesize extracellular matrix” value is given as “inhibited” and the activation of fibroblasts result is “inhibited”. In addition, in test [3], the “collagen deposition in the subcutaneous mucosa at wounded sites (Masson staining)” value is recorded as “less collagen deposition”, the “dermal thickness at wounded sites (HE staining)” value is “smaller dermal thickness” and the “fibroblasts at wounded sites (HE staining)” value was “fewer fibroblasts”. In test [1] (setting [6]), the BhatiaDS score entry is on record as “I (grade I: adhesive area of the area treated in the caecums of vermiform/total area of the treated area<50%, easy for blunt separation)”. For the same molecule, the BhatiaDS score entry in test [1] (setting [8]) is listed as “III”. Besides, the BhatiaDS score entry in test [1] (setting [9]) is recorded as “I (grade I: adhesive area of the area treated in the caecums of vermiform/total area of the treated area<50%, easy for blunt separation)”. Further, the “BhatiaDS score compared with the control group” value in test [1] (versus control group, especially in the high-dose group (1.0 mg/kg)) was “significantly lower”. Moreover, the “hydroxyproline content in tissues” value in test [4] is on record as “significantly lower”. Also, the “indicators related to adhesion (FIB, α-SMA, MMPs/TIMPs, TGF-β1, VEGF)” value in test [5] is recorded as “significantly lower”.

The record behind these values is patent publication US20240327510A1, “DRUG FOR PREVENTING, ALLEVIATING OR TREATING MUCOSAL ADHESION AND USE THEREOF” (SHANGHAI SYNVIDA BIOTECHNOLOGY CO. LTD., priority 2021, published 2024).
